Laboratory results published in the supplement of paper PMC10567573.

B1: VTI1B (parent)
chain: NKLLLSIIILLELAILGGLVYYKF
B2: TLE6 (parent)
chain: FWHDTLTEQLWRIFAGVHDEKAKP

Variants of: B1
Assay: protein stability index of a GFP-peptide fusion (GPS, HEK-293T) (PSI 1-6); higher = more stable
Details: c terminus: a fixed tail appended
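Further: lentivirally expressed fusions sorted by FACS into six bins by GFP to DsRed ratio, PSI derived from sequencing read proportions per bin multiplied by bin number.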

Protein stability index of substitutions, site by site:
L4: H 3.22
L10: I 2.55, C 3.11, D 2.71
L3: R 3.98, W 2.79, M 2.52, P 3.24, H 3.76, Q 2.99
Y22: W 3.83, G 3.7
I8: T 3.41, L 3.04, H 4.21, K 2.87
A14: L 3.61, F 3.19, I 1.84, Q 3.3, C 2.98, R 3.34
S6: F 2.67, R 3.55, G 1.88, I 1.85
I7: K 2.41, D 2.84, Y 2.74
L19: Y 2.48
I9: P 3.12
L11: V 1.49, Q 3.26
L13: Q 2.92, R 3.24, C 1.85, Y 2.83
N1: P 1.77, W 3.84, S 2.63, M 2.75, H 3.67
E12: D 2.99, H 2.64, A 2.13
L16: W 2.31, N 2.9, A 4.1, V 2.62, G 3.79
G18: H 2.46, F 1.55, A 2.61, I 3.09, T 2.61
Y21: A 1.46, I 2.42, H 2.32, D 3.33
I15: W 2.18
G17: L 3.46
L5: A 2.22, E 4.19
K2: Q 4.47, T 2.66, Y 3.38, V 3.38
K23: I 2.95, R 2.49, H 1.85, Y 2.52, V 3.21
V20: I 2.23, C 1.34, Y 2.87

Variants of: B2
Assay: as above
Details: c terminus: a fixed tail appended

Protein stability index of substitutions, site by site:
L6: Y 1.11, W 1.27, Q 2.31, T 1.81, N 2.31, D 1.46, C 1.97, A 2.67, P 1.63, G 1.77, K 2.4, H 2.35, E 1.91
H3: V 1.65, K 1.82, M 2.25, Y 1.91, G 1.82, P 2.41, S 1.72, L 1.9, Q 1.69, A 3.32, N 2.7
D4: Y 3.37, I 2.06, T 1.73, S 1.83, F 3.05, A 1.49, G 2.07, Q 2.29
F14: C 2.62, W 1.89, G 2.21, H 1.65, L 1.8, T 2.39, I 2.56, V 2.35, S 1.75, R 2.4, Y 2.13, P 1.98, N 1.45, D 1.61, K 2.61
I13: N 1.59, A 2.02, D 1.78, V 1.72, T 2.44, H 1.94, C 2.39, W 1.47, S 1.99
A15: I 1.79, Q 1.61, C 2.23, K 1.81, E 1.77, Y 1.62, R 1.94, V 2.82, F 1.73
E8: S 1.64, M 1.1, T 1.74, D 2.02, R 1.85, V 2.95, H 2.52, I 1.66, P 1.76, N 1.79
H18: Y 2.35, G 1.79, K 1.53, V 1.61, E 2.07, R 1.84, A 2.38, D 2.1, P 1.48, F 1.92
E20: I 1.99, T 1.91, F 1.82, R 1.24, Y 2.01, H 1.46, Q 1.96
K21: T 1.85, Y 3.31, N 2.2, M 2.85, C 1.51, W 2.44, F 2.72, S 1.6, G 2.06, E 2.08, D 2.6, P 1.47
R12: C 2.88, G 2.23, V 1.71, W 2.47, I 2.73, L 1.91, D 1.94, S 2.06, K 2.17, Y 1.69, E 1.63, A 1.91, T 2.02
K23: G 1.35, A 1.78, W 2.25, F 3.09, S 2.17, R 1.52, N 2.32
T7: I 2.04, Q 2.46, G 2.28, Y 2.31, C 3.13, M 2.19, V 1.86, W 2
F1: M 2.12, G 2.32, S 1.91, P 2.18, N 2.12, V 1.8, A 2.28, R 2.48, E 1.81, C 2.42, Y 2.05
W11: P 3.12, R 2.22, C 1.99, A 2.37, M 1.76, Y 2.87, Q 2.21, H 2.52, K 2.52
V17: F 1.69, G 2.26, K 1.79, I 1.14, S 1.85, W 1.61, Y 1.54, P 1.65, N 1.83, R 2.25, L 1.48
A22: I 1.74, Y 1.37, P 2.11, D 1.9, E 1.75, G 1.88, M 2.03, F 3.14, S 2.06
W2: N 2.1, M 1.42, Y 1.85, E 2.41, T 2.35, L 2.54, H 3, P 2.16, A 2, G 1.69, V 3.26, C 1.66
P24: M 1.64, Y 1.58, C 2.95, A 1.7, K 1.78, T 1.86, E 2.03, H 2.1, S 2.07, V 2.97, R 1.69, L 1.5, N 2.68, G 1.66
T5: M 1.96, D 2.13, E 1.91, W 1.46, R 1.53, H 2.23, P 2.73, K 2.78, V 2.62, F 2.25, L 1.97, Q 1.22, N 2.23, I 2.26, S 1.98
G16: M 2.14, D 2.06, L 1.64, C 1.83, E 1.9, A 1.88, K 2.12, T 1.62, R 1.6, F 1.72, Q 1.89
Q9: K 1.51, M 1.74, Y 1.65, V 4.83, P 2.69, R 2.48, G 2.65, E 1.58, H 2.59, N 2.45
L10: D 2.34, Q 2.19, G 2.24, Y 1.75, P 1.61, N 1.92, I 2.09, R 1.6, T 1.74, K 2.59, C 1.94, V 2.11, W 2.42
D19: H 1.65, V 3.94, E 1.62, L 1.39, M 2.1, N 2.8, I 2.08, P 1.8, Q 1.22, T 2.7, S 1.79, F 2.61
